Test results as given in the supplement of paper PMC9170038.

Tested on: MS2 coat protein
Assay: apparent KD of MS2 coat protein; designed switch direction (-1 OFF switch, 1 ON switch): -1; higher = weaker reporter binding
Summary of the method: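 Normalised cluster fluorescence was curve-fitted, and each design's median over clusters is its apparent KD. Before this, SNAP-549-labelled MS2 coat protein was titrated from 0.7 or 1.5 nM, doubling to 3 µM, over RNA switches transcribed on Illumina chips by stalled E. coli RNA polymerase. Titrations had no input, 200 uM small-molecule ligand, or an oligonucleotide input, and steps lasted 0.8–1.5 h (lowest) to 10–20 min (highest).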

[1] = Eterna round: R95, input ligand: microRNA oligo, concentration not stated
[2] = Eterna round: R95, input ligand: FMN 200 uM
[3] = Eterna round: R95, input ligand: none
[4] = input ligand: microRNA oligo, concentration not stated

CUUUUGUGAGGAUAUUAGUAGUAAAAAAAUAAAAUUACUACUGAGAAGGCACAUGAGGAUCACCCAUGUUCCUC [salish99_ex4_r3_036] (puzzle: Exclusion 4)
apparent KD of MS2 coat protein [1]: 33.2 nM

UAUAUGCAAGCGAGAUCCCACAUGAGGAUCACCCAUGUAAUAAAUAAGCACAGAAUUACUGUGAAAGCUCGUCUUAU [Winner reversed engineered 37] (Eterna round: R97, puzzle: Sensor, turn-off variant 1)
apparent KD of MS2 coat protein (input ligand: FMN 200 uM): 92.5 nM | apparent KD of MS2 coat protein (input ligand: none): 105 nM

AAGAGGUCAGGAUAUACAGGAAGAGAGAGAAGUAGAGGGUAACAUGAGGAUCACCCAUGUAGAAGGGACUAAGA [JR_Exclu2_Sub071] (puzzle: Exclusion 2)
apparent KD of MS2 coat protein [2]: 67.9 nM | apparent KD of MS2 coat protein [1]: 48.5 nM | apparent KD of MS2 coat protein [3]: 63.1 nM

UGCAGACGAGGAUAUAAAUUUGAUAACAUGAGGAUCACCCAUGUGAUCGAUAGAUCAAAUUUAGAAGGCGUCUGCU [E5/7-A3] (Eterna round: R97, puzzle: Exclusion 5)
apparent KD of MS2 coat protein (input ligand: FMN 200 uM): 541 nM | apparent KD of MS2 coat protein (input ligand: none): 519 nM

GGUUGGCGAGGAUAUACAUGAGGAUCACCCAUGUGAGAAUAAAAAGUGAGGAAGAAAAGUAGAAGGCGCUGACG [Mat - Exclusion 3 - Mod of Salish D5] (puzzle: Exclusion 3)
apparent KD of MS2 coat protein [2]: 76.5 nM | apparent KD of MS2 coat protein [1]: 31.6 nM | apparent KD of MS2 coat protein [3]: 36.3 nM

ACUCGACAUGAGGAUCACCCAUGUGAGGAUAUGGCCUGUAUGGCGUGAGCUGGCUCAAUAAGAAGGCGCGUGGG [salish99_ex1_r4_051] (Eterna round: R97, puzzle: Exclusion 1)
apparent KD of MS2 coat protein (input ligand: FMN 200 uM): 235 nM | apparent KD of MS2 coat protein (input ligand: none): 188 nM

AUUAUACAUGUAGGAUAUCUGCACGUUUAGUGCAGAGAAGGACAUGAGGAUCACCCAUGUAGAUCAAUAAUAAUUAAUUUAAUU [ENG1/6-B2] (Eterna round: R96, puzzle: Exclusion NG 1)
apparent KD of MS2 coat protein (input ligand: FMN 200 uM): 889 nM | apparent KD of MS2 coat protein [4]: 203 nM | apparent KD of MS2 coat protein (input ligand: none): 202 nM

AAGAAACAUGAGGAUCACCCAUGUGAGGAUAUGAAAAAGAAAAGAAAAGAAAGAAGAAUCAGAAGGCACAAAGG [Nebkaure Khety II] (Eterna round: R96, puzzle: Exclusion 1)
apparent KD of MS2 coat protein [4]: 24.3 nM

AAGUAGACGGUGAGGAUAUAGGUGGAAUGACCCAUUUAGAAGGUACAUGAGGAUCACCCAUGUGGGUAACGUCG [Brourd's EX4 #28] (Eterna round: R97, puzzle: Brourd's mod of Exclusion 4)
apparent KD of MS2 coat protein (input ligand: FMN 200 uM): 156 nM | apparent KD of MS2 coat protein (input ligand: none): 166 nM

AAGAGUGCAGGAUAUACUUGGUAGGGUAAGAUGAGUGAGUGACAUGAGGAUCACCCAUGUAGAAGGGCAGAGAG [JR_Exclu2_Sub056] (puzzle: Exclusion 2)
apparent KD of MS2 coat protein [1]: 107 nM

CAGAAACAUGAGGAUCACCCAUGUGAGGAUAUGCGUACGUUGUCCGUAGGCGACGUGCGCAGAAGGCGCAAAGG [Mat - Mod of JL D85] (puzzle: Exclusion 1)
apparent KD of MS2 coat protein [2]: 115 nM | apparent KD of MS2 coat protein [1]: 59.3 nM | apparent KD of MS2 coat protein [3]: 116 nM

AGCUGUGGCCGAGGAUAUCUAUCCAAAAUAACCGAAAUAUAAUCGGACAUGAGGAUCACCCAUGUAGAGAAGGCGGUCUCAGCA [Eli eng2 - 087] (Eterna round: R96, puzzle: Exclusion NG 2)
apparent KD of MS2 coat protein [4]: 18.6 nM

UACAGUCAUCCUUGUUGUUACAUGAGGAUCACCCAUGUUAGUAUAAUUAAGUUAUGUAAGUUUGUUGUUCGUUUUAU [JR_STOV1_v2_Sub076] (Eterna round: R97, puzzle: Sensor, turn-off variant 1)
apparent KD of MS2 coat protein (input ligand: FMN 200 uM): 94.2 nM | apparent KD of MS2 coat protein (input ligand: none): 101 nM

UUUUAACAUGAGGAUCACCCAUGUGAGGAUAUCGAAAUUUAUAUUAAUAUUUAUUUAACGAGAAGGCACAUUUU [JMF 63] (puzzle: Exclusion 1)
apparent KD of MS2 coat protein [1]: 93.2 nM

GUCACGUAAGGAUAUCAUUAGUUGGACAUGAGGAUCACCCAUGUGAGACUAACUCCGGCGUGAGAAGGUGCGUUAA [Arorza] (puzzle: Exclusion 5)
apparent KD of MS2 coat protein [1]: 12 nM

AAAAGCAAGCAAAGAUUCUACAUGAGGAUCACCCAUGUGCUCGUCUUAUAAAGUACUAUCACGAAAGUGAUAGUACA [Sensor 3, v1 - 42] (puzzle: Sensor v3, turn-off variant 1)
apparent KD of MS2 coat protein [2]: 26 nM | apparent KD of MS2 coat protein [1]: 142 nM | apparent KD of MS2 coat protein [3]: 19.7 nM

GGCAUGUAAGGAUAUGCCACGCAGUCCUUUGGGCUGCGUAAGCAGAAGGUACAUGAGGAUCACCCAUGUGAUAA [jl-ex4-4.56 ViennaUCT mod] (Eterna round: R97, puzzle: Exclusion 4)
apparent KD of MS2 coat protein (input ligand: FMN 200 uM): 865 nM | apparent KD of MS2 coat protein (input ligand: none): 591 nM

CGCGACUCAGGAUAUACAUGAGGAUCACCCAUGUGGAACGACUGGGUCGAUAAAAGGUGUAGAAGGGAGGAAAA [Invebies] (puzzle: Exclusion 3)
apparent KD of MS2 coat protein [2]: 15.4 nM | apparent KD of MS2 coat protein [1]: 12.6 nM | apparent KD of MS2 coat protein [3]: 15.4 nM

AAGAUGCCAAAGGAUAUCGAAGGAGUGGCGCGGCGAGAAGGUUGGACAUGAGGAUCACCCAUGUGGUGGCUCCC [Usmaarri] (Eterna round: R97, puzzle: Exclusion 6)
apparent KD of MS2 coat protein (input ligand: FMN 200 uM): 703 nM | apparent KD of MS2 coat protein (input ligand: none): 1070 nM

GUCACAUGGACAUAGGAUCACAUGAGGAUCACCCAUGUGACUAACAAGCUUUUUGCUCGUCUUAUGUCUAUGUGAAG [Stov1/16-A3] (Eterna round: R97, puzzle: Sensor, turn-off variant 1)
apparent KD of MS2 coat protein (input ligand: FMN 200 uM): 14.4 nM | apparent KD of MS2 coat protein (input ligand: none): 12.4 nM

CUGUACUGAGGAUAUACAUGAGGAUCACCCAUGUGAUGUAGUGCACGCGUACGUGUACGUAGAAGGCAGUACAG [Mat - Exclusion 3 - Eli Mod - D41] (Eterna round: R97, puzzle: Exclusion 3)
apparent KD of MS2 coat protein (input ligand: FMN 200 uM): 54 nM | apparent KD of MS2 coat protein (input ligand: none): 20.3 nM

UAUAAAACAUAGGAUAUCGAAUAUAUCAUUUAACGAGAAGGAUGAACAUGAGGAUCACCCAUGUGGUAUCAUGG [Mat - Exclusion 6 - JL Mod - D8] (puzzle: Exclusion 6)
apparent KD of MS2 coat protein [2]: 286 nM | apparent KD of MS2 coat protein [1]: 262 nM | apparent KD of MS2 coat protein [3]: 172 nM

GAGUUAACGUGAGGAAUAUACAUGAGGAUCACCCAUGUUAACAAAUUUAUUGCUCGUCUUAUAACAACAAUUAACUC [Alarm 6 - Jieux - Sensor, turn-off variant 1] (Eterna round: R97, puzzle: Sensor, turn-off variant 1)
apparent KD of MS2 coat protein (input ligand: FMN 200 uM): 23 nM | apparent KD of MS2 coat protein (input ligand: none): 27.7 nM

GAUUCGCGAGGAUAUACAGUCGAGUCCAUUACGUGUCUGGGACUUGAGGAUCACCCAAGUAGAAGGCGUCUCAU [salish99_ex2_r4_638] (Eterna round: R97, puzzle: Exclusion 2)
apparent KD of MS2 coat protein (input ligand: FMN 200 uM): 55.6 nM | apparent KD of MS2 coat protein (input ligand: none): 57.8 nM

GACAUCGCAGGAUAUUAGAGUUUUUACAUGAGGAUCACCCAUGUUAAUUGGGUUAAUGUCUAAGAAGGGCGAUGUC [JR_EX5_Sub015] (Eterna round: R97, puzzle: Exclusion 5)
apparent KD of MS2 coat protein (input ligand: FMN 200 uM): 113 nM | apparent KD of MS2 coat protein (input ligand: none): 49.4 nM

UUAAUGGCUGUGAGGAUAUCGGAUAGAUAGAUAUUCGAGAAGGCACAUGAGGAUCACCCAUGUGUGAUUAGAGA [Brourd's EX4 #63] (Eterna round: R97, puzzle: Brourd's mod of Exclusion 4)
apparent KD of MS2 coat protein (input ligand: FMN 200 uM): 130 nM | apparent KD of MS2 coat protein (input ligand: none): 26 nM

GGAAGGCGAGGAUAUACAAUGCCGGAAACGGCAGGCGUGAGACAUGAGGAUCACCCAUGUAGAAGGCGCGGAGA [AK-MS2ROC-r4-exclusion2-15] (Eterna round: R97, puzzle: Exclusion 2)
apparent KD of MS2 coat protein (input ligand: FMN 200 uM): 101 nM | apparent KD of MS2 coat protein (input ligand: none): 105 nM

AUAAAGUGAGGAUAUCCAAUAUAUGACAUGAGGAUCACCCAUGUUUCCACUCGUACCUCCGGAGAAGGCACAAUUU [Ex5 #63] (Eterna round: R97, puzzle: Exclusion 5)
apparent KD of MS2 coat protein (input ligand: FMN 200 uM): 24.5 nM | apparent KD of MS2 coat protein (input ligand: none): 29.2 nM

CUUAGACAUGAGGAUCACCCAUGUGAGGAUAUGAUGCGAAUAAGUAAGUAAUAAAGCAUCAGAAGGCACAUAUG [Mat - Mod of Hyphema D28] (puzzle: Exclusion 1)
apparent KD of MS2 coat protein [2]: 235 nM | apparent KD of MS2 coat protein [1]: 186 nM | apparent KD of MS2 coat protein [3]: 222 nM

UUAAAUCAUGUAGGAUAUGCUUUGCAAAGCGAAGCAGAAGGACAUGAGGAUCACCCAUGUGCUAGCGUCCGAGAACGGAUGCAA [Mat - Exclusion NG 1 - Mod of JL - D65] (Eterna round: R96, puzzle: Exclusion NG 1)
apparent KD of MS2 coat protein (input ligand: FMN 200 uM): 501 nM | apparent KD of MS2 coat protein [4]: 60.6 nM | apparent KD of MS2 coat protein (input ligand: none): 61.5 nM

GGUCGGCGAGGAUAUACAUGAGGAUCACCCAUGUGAUAGAUUGCACGCGUACGUGUAUGUAGAAGGCGCUGACG [JL-ex3-3.30 salish99 mod] (Eterna round: R96, puzzle: Exclusion 3)
apparent KD of MS2 coat protein (input ligand: FMN 200 uM): 433 nM | apparent KD of MS2 coat protein [4]: 24.7 nM | apparent KD of MS2 coat protein (input ligand: none): 32.8 nM

AUGGGUCCUCACGGAGCUACAUGAGGAUCACCCAUGUGGAUUGAGGAUAUCGUAAGCCGACGGCACGAGAAGGCAGUUUACUGU [Ex NG3 #97] (Eterna round: R96, puzzle: Exclusion NG 3)
apparent KD of MS2 coat protein (input ligand: FMN 200 uM): 47.5 nM | apparent KD of MS2 coat protein [4]: 22.8 nM | apparent KD of MS2 coat protein (input ligand: none): 23.5 nM

GAAUGAGAGCAGGAUAUCUUAUAAAUGUAUGGAAGAGAAGGGCUCACAUGAGGAUCACCCAUGUGGUCCUAGAU [jl-ex6-4.70 jandersonlee mod] (Eterna round: R97, puzzle: Exclusion 6)
apparent KD of MS2 coat protein (input ligand: FMN 200 uM): 215 nM | apparent KD of MS2 coat protein (input ligand: none): 36.5 nM

ACAUGUAAUGCAGGAUAUCGGACACAUGAGGAUCACCCAUGUGACCUGAGGUAUUGCUAAGAGUCUGAGAAGGGUAUGUACAUG [Ex NG2 #51] (Eterna round: R96, puzzle: Exclusion NG 2)
apparent KD of MS2 coat protein (input ligand: FMN 200 uM): 28.7 nM | apparent KD of MS2 coat protein [4]: 15.7 nM | apparent KD of MS2 coat protein (input ligand: none): 20.4 nM
